± gives the uncertainty stated by the source.
Assay: self-splicing fitness, log relative to wild type (ln ratio); higher = more splicing; Tetrahymena group I intron in knt gene, E. coli kanamycin selection, DiMSum; sequences stand for … in CUCUCU…GGAGGGAAAAGUUAUCAGGCAUGCACCUGGUAGCUAGUCUUUAAACCAAUAGAUUGCAUCGGUUUAAAAGGCAAGACCGUCAAAUUGCGGGAAAGGGGUCAACAGCCGUUCAGUACCAAGUCUCAGGGGAAACUUUGAGAUGGCCUUGCAAAGGGUAUGGUAAUAAGCUGACGGACAUGGUCCUAACCACGCAGCCAAGUCCUAAGUCAACAGAUCUUCUGUUGAUAUGGAUGCAGUUCACAGACUAAAUGUCGGUCGGGGAAGAUGUAUUCUUCUCAUAAGAUAUAGUCGGACCUCUCCUUAAUGGGAGCUAGCGGAUGAAGUGAUGCAACACUGGAGCCGCUGGGAACUAAUUUGUAUGCGAAAGUAUAUUGAUUAGUUUUGGAGUACUCGUGGUCG
How it was run: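 A randomised library covering all eight P1ex-region intron nucleotides was built with the intron in the knt kanamycin-resistance gene on pET-22b(+) and held in E. coli BL21(DE3). Cells were grown overnight at 37°C or 30°C on LB agar, with or without 25 μg/mL kanamycin, plus 100 μg/mL carbenicillin, 50 μM IPTG and 0.2% rhamnose, and pooled colonies were amplicon-sequenced on an Illumina HiSeq 2500. DiMSum fitness is the error-weighted combination of wild-type-normalised replicate fold changes, kanamycin versus none.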

Sequence | self-splicing fitness (ln) (30 °C) | self-splicing fitness (ln) (37 °C)
AGAGAGCAAUAUUACGUUCG | -2.2 ± 0.16 | -2.07 ± 0.23
CGUCAGCAAUAUUACGAGAG | -2.91 ± 0.15 | -2.76 ± 0.25
UUCUAGCAAUAUUACGGGAA | -2.38 ± 0.19 | -2.8 ± 0.28
AGCUAGCAAUAUUACGCCAC | -3.18 ± 0.32 | -2.45 ± 0.42
AGCUAGCAAUAUUACGCACC | -0.833 ± 0.15 | -0.409 ± 0.19
GGGGAGCAAUAUUACGGGAA |  | -1.38 ± 0.49
AACUAGCAAUAUUACGGGUU | -3.03 ± 0.12 | -2.82 ± 0.17
CGCAAGCAAUAUUACGAAUA | -3.27 ± 0.21 | -2.4 ± 0.2
AUGAAGCAAUAUUACGAUUG | -2.6 ± 0.13 | -1.24 ± 0.14
AAAAAGCAAUAUUACGUGUA | -1.78 ± 0.089 | -1.33 ± 0.085
UAGCAGCAAUAUUACGGGAC | -4.55 ± 0.31 | -2.75 ± 0.26
UUCAAGCAAUAUUACGAUUU | -3.24 ± 0.21 | -1.12 ± 0.17
AAAAAGCAAUAUUACGGGGG | -3.27 ± 0.17 | -2.76 ± 0.18
CCGUAGCAAUAUUACGACUA |  | -1.08 ± 0.25
UAAGAGCAAUAUUACGAGCU | -2.93 ± 0.3 | -2.6 ± 0.44
CCUUAGCAAUAUUACGAGGU | -4.03 ± 0.15 | -2.52 ± 0.15
UCUUAGCAAUAUUACGAUAU |  | -1.78 ± 0.38
GCAGAGCAAUAUUACGUGGC |  | -2.09 ± 0.32
ACCAAGCAAUAUUACGGGGA | -2.16 ± 0.09 | -1.85 ± 0.098
UGCUAGCAAUAUUACGGUAC |  | -0.887 ± 0.39

Sequence | self-splicing fitness (ln) (30 °C) | self-splicing fitness (ln) (37 °C)
CCCAAGCAAUAUUACGUGAA | -3.33 ± 0.14 | -2.13 ± 0.14
UAGGAGCAAUAUUACGGGCU | -3.12 ± 0.48 | -1.64 ± 0.4
ACUCAGCAAUAUUACGGGUC | -2.95 ± 0.16 | -2.2 ± 0.17
UACGAGCAAUAUUACGACGC | -3 ± 0.27 | -2.09 ± 0.35
AGAUAGCAAUAUUACGUCUA | -0.934 ± 0.24 | -0.474 ± 0.2
CAGGAGCAAUAUUACGUGUU | -3.24 ± 0.17 | -2.55 ± 0.27
CUGUAGCAAUAUUACGUUUA | -3.7 ± 0.32 | -2.51 ± 0.16
GACAAGCAAUAUUACGCCAC |  | -2.64 ± 0.5
CUAAAGCAAUAUUACGAGAA | -2.99 ± 0.19 | -3.25 ± 0.33
CCCGAGCAAUAUUACGUUUA | -3.42 ± 0.17 | -2.75 ± 0.16
GGUGAGCAAUAUUACGUUGU | -4.18 ± 0.31 | -2.04 ± 0.25
AAUCAGCAAUAUUACGCACU | -0.299 ± 0.077 | 0.326 ± 0.093
AAGCAGCAAUAUUACGUAUA | -2.85 ± 0.19 | -2.69 ± 0.19
GGUGAGCAAUAUUACGCGCG | -0.933 ± 0.087 | -0.502 ± 0.12
UGGAAGCAAUAUUACGUUUA | -0.859 ± 0.072 | -0.47 ± 0.086
GUGAAGCAAUAUUACGCGAA | -1.56 ± 0.11 | -0.479 ± 0.12
ACUAAGCAAUAUUACGCGUA | -1.2 ± 0.11 | -0.501 ± 0.13
CUCGAGCAAUAUUACGCAGA | -2.04 ± 0.35 | -0.967 ± 0.17
UACUAGCAAUAUUACGUGAU | -3.07 ± 0.11 | -1.17 ± 0.12
AGGUAGCAAUAUUACGCCUA | -0.599 ± 0.019 | -0.197 ± 0.035
